Measurements reported in the supplement of paper PMC9170038.

System: MS2 coat protein
Test: apparent KD of MS2 coat protein; designed switch direction (-1 OFF switch, 1 ON switch): 1; higher = weaker reporter binding
Summary of the method: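 Stalled E. coli RNA polymerase transcribed designed RNA switches on Illumina chips, which were then titrated with SNAP-549-labelled MS2 coat protein, doubling from 0.7 or 1.5 nM to 3 µM. Steps lasted from 0.8–1.5 h at the lowest concentration to 10–20 min at the highest. The apparent KD is each design's median over clusters of curve-fitted normalised fluorescence.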

[1] = input ligand: microRNA oligo, concentration not stated
[2] = Eterna round: R95, input ligand: FMN 200 uM
[3] = Eterna round: R95, input ligand: microRNA oligo, concentration not stated
[4] = Eterna round: R95, input ligand: none

Sequence | apparent KD of MS2 coat protein (input ligand: FMN 200 uM) | apparent KD of MS2 coat protein [1] | apparent KD of MS2 coat protein (input ligand: none) | apparent KD of MS2 coat protein [2] | apparent KD of MS2 coat protein [3] | apparent KD of MS2 coat protein [4]
AACAGUCGGCGAGGAUAUGGACGUACAGGUUUGCCUGUGCGGCUCACAUGAGGAUCACCCAUGUUCUAGAAGGCGCCACUGUGA [Racearza] (Eterna round: R96, puzzle: Same State NG 2) | 15.6 nM | 60 nM | 73.9 nM | – | – | –
CUACUACAUGAGGAUCACCCAUGUUGGAGUGAUGCAGGAUAUGUGUGACCAGAAGAUGAAACAGAAGGGCAAAGAA [JR_SS!_Sub003] (puzzle: Same State 1) | – | – | – | 41.9 nM | 68 nM | 96.2 nM
GUAGCAUACCGAGGAUAUUCAACAUGAGGAUCACCCAUGUGUUUAUUAUAGGCCAAAAGGCCUUGGGAGAAGGCGGAAUGCUAC [Xeonanis - 20 Mod15] (Eterna round: R96, puzzle: Same State NG 2) | 9.4 nM | 8.4 nM | 15.7 nM | – | – | –
AGAUCAUGACGAGGAUAUGGAACAUGAGGAUCACCCAUGUAUGUUCCAUAACGCGAAUAAAGAAUCCAGAAGGCGUCGUGAUCA [Mat - Same State NG 2 - JL mod - D31] (Eterna round: R96, puzzle: Same State NG 2) | 13.1 nM | 52.5 nM | 85.5 nM | – | – | –
UUUAUAUUCAGAGGAUAUUAAUGUAGUAUAAUAUAAGAAGGCUGUUUGUUUUGUAAAGUUAUUAUACAUGAGGAUCACCCAUGU [JR_SSNG1_Sub083] (Eterna round: R96, puzzle: Same State NG 1) | – | 13.5 nM | – | – | – | –
GCUACCAAUGAAGCCAACAUGAGGAUCACCCAUGUAUGUUGGUAGGAUAUCGUUUGCUUUGCAAACGAGAAGGGCUAAGGUAGC [JL SSNG3 1.26] (Eterna round: R96, puzzle: Same State NG 3) | 42.2 nM | 39.2 nM | 42.6 nM | – | – | –
CAGCACUGUCGAGAGGAUAUGCGGUGAUAGACAUGAGGAUCACCCAUGUUAGCGACAGCAUCACGGCAGAAGGCUCUGCUGCUGC [Soteed Omei mod 40] (puzzle: Same State 2) | – | – | – | 43.5 nM | 130 nM | 349 nM
AGCUAGUACCGAGGAUAUACGUACAUGAGGAUCACCCAUGUAUACAUGAAUUAAUGAGACUACAUGUAGAAGGCGGUACUAGCA [Mat - Same State NG 2 - JL mod - D49] (Eterna round: R96, puzzle: Same State NG 2) | – | 34.3 nM | – | – | – | –
UCUUGGUUUUUGCUCGUUUUUUGUGUUGAACAUGAGGAUCACCCAUGUAUUGUACAGUCCGGUUUGAUGAUGGUCCG [JMF 59] (puzzle: Sensor for hsa-mir-208a) | – | – | – | 32.1 nM | 25.6 nM | 33.4 nM
AGUCCAGCCUGAGCUGGACAAAAGCAUGUACAUGAGGAUCACCCAUGUUCAUGUACAAGCUUUUUGCUCGUAUUAAA [Mat - hsa-mir-208a - Mod of JL - 52] (puzzle: Sensor for hsa-mir-208a) | – | – | – | 555 nM | 14.8 nM | 566 nM
GGUGGGUUACUACCCACACAUGAGGAUCACCCAUGUAUUGGGAAGGAUAUGGUGCCUGUGUGGUACCAGAAGGUCCUGAAGGUG [SS-NG3-LRO18] (Eterna round: R96, puzzle: Same State NG 3) | 1360 nM | 1030 nM | 2130 nM | – | – | –
AUAUAACAUGAGGAUCACCCAUGUCAACAAAGUCGAGGAUAUGGGCAAAUAAAAUAAGAACCAGAAGGCGAAUAAU [salish99_ss1_r3_047] (Eterna round: R96, puzzle: Same State 1) | – | 189 nM | – | – | – | –
GGUAAACAUGAGGAUCACCCAUGUAAUAAUAUGGGAGGAUAUGGGAAUUAAUUAAUUAAACCAGAAGGCCUAAUUG [Mat - Same State 1 - D85] (puzzle: Same State 1) | – | – | – | – | 167 nM | –
AUAAAACAUGAGGAUCACCCAUGUCAUCAAAGUCGAGGAUAUGGGCAAAUAAAAUAAGAACCAGAAGGCGAAUAAU [salish99_ss1_r3_043] (puzzle: Same State 1) | – | – | – | 106 nM | 298 nM | 501 nM
AGCUAAAACGAAGGAUAUACUGACAUGAGGAUCACCCAUGUAUACAUGAUUUAUUGUGAUCACAUGUAGAAGGUCGUACUAACA [SameState NG2 #21] (Eterna round: R96, puzzle: Same State NG 2) | 310 nM | 269 nM | 413 nM | – | – | –
UGUUGUAUUACAGGAUAUCUAUUAGUUUUAUAUAGAGAAGGGUAUUCACAUGAGGAUCACCCAUGUAUAUACGAGGAAGUUGUG [JMF's solution 100] (Eterna round: R96, puzzle: Same State NG 1) | – | 36.8 nM | – | – | – | –

Sequence | apparent KD of MS2 coat protein (input ligand: FMN 200 uM) | apparent KD of MS2 coat protein [1] | apparent KD of MS2 coat protein (input ligand: none) | apparent KD of MS2 coat protein [2] | apparent KD of MS2 coat protein [3] | apparent KD of MS2 coat protein [4]
UUCACCUUUUAUAACAUGAGGAUCACCCAUGUAUAUUGUACGUAGGAUAUCGAUGUUAGUUUUUUCGAGAAGGACGAUGUAAGU [JR_SSND3_Sub049] (Eterna round: R96, puzzle: Same State NG 3) | 29.6 nM | 40.7 nM | 53.9 nM | – | – | –
UUCUCUUUUUAGAGACAAGCUUUUUGAUCACAUGAGGAUCACCCAUGUCUCGUCUUAUGAUCUACUUCGGUAGAUCU [BA Sensor hsa-mir-208a - 2 - 5] (puzzle: Sensor for hsa-mir-208a) | – | – | – | 155 nM | 13.9 nM | 144 nM
UGUUAACAUGAGGAUCACCCAUGUCAAAUGAAUCGAGGAUAUGGGAAGUAAGAAGAGAAACUAGAAGGCGAAGUUG [Altered State 1-3 - Jieux - Same State 1] (puzzle: Same State 1) | – | – | – | 97.2 nM | 72.9 nM | 226 nM
AGUCCAGCCUGAGCUGGACAAAAGUAUGUACAUGAGGAUCACCCAUGUCAUGUACAAGCUUUUUGCUCGUCUUAAUA [Zipper 49 - 9] (puzzle: Sensor for hsa-mir-208a) | – | – | – | 404 nM | 24.1 nM | 511 nM
CGUAGGUAGCUGGAGGAUAUCCGAGUGGUAACAUGAGGAUCACCCAUGUGAUGAAAGGAACAUGAGGAGAAGGCUAGCUGCCUGC [JL-ss2-3.11 JL mod] (puzzle: Same State 2) | – | – | – | 15.4 nM | 29 nM | 30.9 nM
GGUAGGUUACUACCAAACAUGAGGAUCACCCAUGUAAAUGGGAAGGAUAUGGUACCUAUUUGGUACCAGAAGGUCUAAAUAAUU [Mat - Same State NG 3 - JL Mod - D94] (Eterna round: R96, puzzle: Same State NG 3) | 392 nM | 821 nM | 1020 nM | – | – | –
ACAAGACAUGAGGAUCACCCAUGUAUAAAUUACACAGGAUAUCGGCAGGCAGCACCUGCACGAGAAGGGUGACUUC [Inbilera] (puzzle: Same State 1) | – | – | – | 193 nM | 21.7 nM | 27.3 nM
AUAAAACAUGAGGAUCACCCAUGUCAACAAAGUCGAGGAUAUGGGCAAAUAAAAUAUGAACCAGAAGGCGAAUAAU [salish99_ss1_r3_019] (puzzle: Same State 1) | – | – | – | 35.8 nM | 221 nM | 310 nM
GUUACAUGAGGAUCACCCAUGUAUGUGUGGGAGUAAGUGUCUUAGGAUAUCUAUGAUGUAAUUUAAGAGAAGGAAGAUUGUUGU [JMF's solution 76] (Eterna round: R96, puzzle: Same State NG 3) | 135 nM | 128 nM | 150 nM | – | – | –
GGUUUAGUCAAGUGCCGUUGCACUUGAAAACAUGAGGAUCACCCAUGUUCGGGACAAGCUUUGCUCCUCGUCUUUCC [Geisedor] (puzzle: Sensor for hsa-mir-208a) | – | – | – | 255 nM | 50.2 nM | 389 nM
GCCUCUGCUCCACAGGAUAUGCGCUGUUGUACAUGAGGAUCACCCAUGUGCAGCCGACCAGAGCUGCAGAAGGGUGAGAGAGAGU [Atisanesxe] (puzzle: Same State 2) | – | – | – | 28.6 nM | 253 nM | 243 nM
GUUACAUGAGGAUCACCCAUGUAUGUGUGGGAGUAAGUGUCUUAGGAUAUCUAUGAAUUAAUUUAAGAGAAGGAAGAUUGUUGU [JMF's solution 73] (Eterna round: R96, puzzle: Same State NG 3) | 107 nM | 73.3 nM | 112 nM | – | – | –
GGUAGGUUACUACCAAACAUGAGGAUCACCCAUGUAGGUGGGAAGGAUAUGGUACCUUUUAGGUACCAGAAGGUCCAUACAAUU [NGss mod of JL's mod of Fisker] (Eterna round: R96, puzzle: Same State NG 3) | 318 nM | 154 nM | 203 nM | – | – | –
CAUCUCCCUUUUACAUGAGGAUCACCCAUGUUUUUAUAAUGAGAGGAUAUCGUAUUUAGAAACAUCGAGAAGGCUCAAUUGUAU [JR_SSNG3_Sub071] (Eterna round: R96, puzzle: Same State NG 3) | 131 nM | 93 nM | 153 nM | – | – | –
CAGCGUACCGGAGGAUAUUGUGGAUACGACCAACAUGAGGAUCACCCAUGUGGGACUAGUCAAAUCAAGAAGGUUGGACCGUCA [Eternabot solution 44] (Eterna round: R96, puzzle: Same State NG 2) | 26.2 nM | 25.6 nM | 33.3 nM | – | – | –
AAUCCUGUCACAGGAUAUCCGAGGGCAACCCUCGGAGAAGGGUGAUAGUCUAACAAACACACACAUGAGGAUCACCCAUGUUAA [Sogece] (Eterna round: R96, puzzle: Same State NG 1) | 76.9 nM | 113 nM | 133 nM | – | – | –
